Laboratory results from article PMC5282575, “The crystal structure of the Sgt1-Skp1 complex: the link between Hsp90 and both SCF E3 ubiquitin ligases and kinetochores” (Scientific Reports, 2017).
Residue numbers refer to the chain shown, from its start.

B1: full-length Sgt1 (untagged), Saccharomyces cerevisiae (natural protein, S. cerevisiae, UniProt Q08446 1-395, looked up)
chain: MPVEKDLKTAYKALYDEKEPLKALHLYDEILKGSPTNLTALIFKAACLEKLYFGFSDWHSDATMENAKELLDKALMTAEGRGDRSKIGLVNFRYFVHFFNIKDYELAQSYFKKAKNLGYVDDTLPLWEDRLETKLNKKNKKQKDSTNKHTIKPVESIENRGDNNSSHSPISPLKIETAPQESPKFKIDWYQSSTSVTISLFTVNLPESKEQVNIYISPNDRRTLSISYQVPKSGSEFQYNAKLSHEVDPKAVSLKIFPKKLEITLSKIDSTQWKKLEEDILTESSRLSDEGKNSDSATRLLSAETASKERLSYPSSSKKKIDWSKLDIDEEADEEAGSADSFFQKLYAGADPDTKRAMMKSFIESNGTALSTDWEDVSKGTVKTSPPEGMEPKHW
notes: Sgt1, S. cerevisiae, full length, untagged, cloned in MCSII of pColA-Duet; Dimer at working concentrations by SV-AUC and native MS, with minor monomer and trimer; also called Sgt1 FL; wt; source: E. coli BL21 Star (DE3), purified (cation exchange, gel filtration)
B2: Skp1∆1 (Skp1 with residues 65-74 deleted) (natural protein, S. cerevisiae, UniProt P52286 1-194, looked up)
chain: MVTSNVVLVSGEGERFTVDKKIAERSLLLKNYLNDMHDSNLQNNSDSESDSDSETNHKSKDNNNIVMPVPNVRSSVLQKVIEWAEHHRDSNFPDEDDDDSRKSAPVDSWDREFLKVDQEMLYEIILAANYLNIKPLLDAGCKVVAEMIRGRSPEEIRRTFNIVNDFTPEEEAAIRRENEWAEDR
notes: Skp1, S. cerevisiae, in the context of the full-length protein; the LCR (36-64) is retained, residues 65-74 are deleted; also called Skp1Δ1; Skp1d1; source: E. coli, purified (anion exchange, gel filtration)
B3: His6-tagged full-length Sgt1 D61R (natural protein, S. cerevisiae, UniProt Q08446 1-395, looked up)
chain: B1 chain with D61R
notes: Sgt1, S. cerevisiae, full length, in pET28a, Asp61 to Arg; source: E. coli T7 Express LysY/Iq, purified (HisTrap FF, gel filtration); not shown: His6, N-terminal, kept
B4: Sgt1 TPR domain construct (Sgt1TPR, residues 1-150) (domain or fragment, S. cerevisiae, UniProt Q08446 1-150, looked up)
chain: MPVEKDLKTAYKALYDEKEPLKALHLYDEILKGSPTNLTALIFKAACLEKLYFGFSDWHSDATMENAKELLDKALMTAEGRGDRSKIGLVNFRYFVHFFNIKDYELAQSYFKKAKNLGYVDDTLPLWEDRLETKLNKKNKKQKDSTNKHT
notes: Sgt1, S. cerevisiae, TPR domain, residues 1-150, untagged, cloned in MCSII of pColA-Duet; Treated as a dimer in the ITC fit; forms concentration-dependent trimers; three copies in the asymmetric unit; SeMet-Sgt1TPR was used for the SAD data set; source: E. coli T7 Express LysY/Iq, purified (cation exchange, gel filtration)

How the values were obtained:
[1] = target: full-length Sgt1 and Sgt1TPR (S. cerevisiae); experiment: ITC; VP-ITC, 25 °C, 20 mM HEPES pH 7.0, 150 mM NaCl, 1 mM β-mercaptoethanol; 130-160 μM Skp1 injected into 6-13 μM Sgt1 dimer; single site model assuming dimeric Sgt1
[2] = target: the molecule itself; experiment: AUC; sedimentation velocity, 20 °C, absorbance at 280 nm, continuous c(s) fit; Sgt1 at 4.5-22.3 μM monomer (His6-tagged WT and H59A at 11.2 μM)
[3] = target: Skp1∆1 (Skp1 with residues 65-74 deleted) (S. cerevisiae, UniProt P52286 1-194, residues 65–74 are deleted); experiment: ITC
[4] = target: B1; experiment: ITC; VP-ITC, 25 °C, 20 mM HEPES pH 7.0, 150 mM NaCl, 1 mM β-mercaptoethanol; 130-160 μM Skp1 injected into 6-13 μM Sgt1 dimer; single site model assuming dimeric Sgt1; settings: both partners purified
[5] = target: the molecule itself; experiment: native MS; nano-electrospray, samples exchanged into 150 mM ammonium acetate pH 7; 4.5, 11.2 and 22.3 μM; spectra deconvoluted with Amphitrite

## full-length Skp1 (untagged), Saccharomyces cerevisiae (from UniProt P52286 1-194) (natural protein)
[1]
  Kd: 600 to 700 nM

## B1
[2]
  stoichiometry N: 2
[3]
  Kd: 3900 nM

## B2
[4]
  binding result: binds

## B3
[5]
  stoichiometry N: 2

## B4
[2]
  stoichiometry N: 3
